Test results published in patent US20160060347A1 (MorphoSys, published 2016).

T1: human CXCR2 (human, UniProt P25025 1-360)
T1 construct: Expressed on Flp-In CHO cells (FACS, Fab-ZAP, ADCC, CDC) or on bought PathHunter CHO cells (beta-arrestin assay); the construct in the PathHunter cells is not described; also called chemokine receptor CXCR2; CXCR2 CHO Flp-In cells
T1 sequence: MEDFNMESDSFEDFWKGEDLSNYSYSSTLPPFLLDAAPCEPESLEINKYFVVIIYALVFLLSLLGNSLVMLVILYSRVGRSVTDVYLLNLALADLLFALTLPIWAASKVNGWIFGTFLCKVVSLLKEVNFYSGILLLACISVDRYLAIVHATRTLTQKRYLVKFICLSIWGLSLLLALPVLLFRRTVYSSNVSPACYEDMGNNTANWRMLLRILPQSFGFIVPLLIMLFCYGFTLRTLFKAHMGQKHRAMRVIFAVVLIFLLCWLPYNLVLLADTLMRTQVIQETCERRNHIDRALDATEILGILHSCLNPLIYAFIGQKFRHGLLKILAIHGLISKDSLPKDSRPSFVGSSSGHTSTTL


Columns and labels:
[1] = target: T2, hu_CXCR2_N-term (1-17)-BSA (human; bovine, coupled to carrier protein BSA; C-terminal cysteine introduced to enable coupling); experiment: ELISA, coated peptide-BSA, IgG1
T2 construct: Synthetic linear peptide chemically coupled to the carrier; also called CXCR2_aa1-17_BSA; CXCR2 aa1-17 BSA
T2 sequence (P02769 25-607 limits assumed): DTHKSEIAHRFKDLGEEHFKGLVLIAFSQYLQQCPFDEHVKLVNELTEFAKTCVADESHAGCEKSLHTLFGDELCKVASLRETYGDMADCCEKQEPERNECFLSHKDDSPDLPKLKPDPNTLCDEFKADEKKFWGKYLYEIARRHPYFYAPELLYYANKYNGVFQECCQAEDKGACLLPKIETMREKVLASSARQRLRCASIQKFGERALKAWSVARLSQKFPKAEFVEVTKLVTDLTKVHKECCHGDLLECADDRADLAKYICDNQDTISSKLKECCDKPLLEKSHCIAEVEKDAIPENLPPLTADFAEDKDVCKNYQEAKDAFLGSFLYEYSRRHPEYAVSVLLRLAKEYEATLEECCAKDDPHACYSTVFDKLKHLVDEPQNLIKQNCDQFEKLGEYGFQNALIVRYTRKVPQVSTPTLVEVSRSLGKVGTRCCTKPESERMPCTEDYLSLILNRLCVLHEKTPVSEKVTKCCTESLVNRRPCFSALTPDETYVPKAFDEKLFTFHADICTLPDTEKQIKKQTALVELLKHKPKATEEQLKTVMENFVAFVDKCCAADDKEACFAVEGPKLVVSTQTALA
Experimental: (§1) 384-well Maxisorp plates (Nunc; Cat. #460518) were coated with respective CXCR2 and control peptides coupled either to BSA or Transferrin (TRF) at 1-5 μg/mL and incubated o/n at 4° C. […] After three washing steps, antibodies were added at 5-10 μg/mL and titrated in some experiments. Antibodies were incubated 1 h at room temperature and plates were subsequently washed. Binding of anti-CXCR2 antibodies was detected by using alkaline phosphatase-conjugated anti-human IgG, (Dianova, Cat #109-055-097). AttoPhos fluorescence substrate (Roche, Cat #1484281) was added according to instructions of the manufacturer and fluorescence was measured (excitation at 430 nm, emission at 535 nm) using a microplate reader.

[2] = target: T3, ECL3 peptide aa273-295, BSA-coupled (human; bovine, coupled to carrier protein BSA; C-terminal cysteine introduced to enable coupling); experiment: ELISA, coated peptide-BSA, IgG1
T3 construct: also called CXCR2 aa273-295 BSA; peptides representing the extracellular domain 3
T3 sequence (peptide, as listed by the source limits assumed, chain 1 of 2): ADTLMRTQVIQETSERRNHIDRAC
T3 sequence (P02769 25-607 limits assumed, chain 2 of 2): as the sequence (P02769 25-607 limits assumed) above
Experimental: as §1

[3] = target: T4, N-terminal peptide aa1-48, BSA-coupled (human; bovine, coupled to carrier protein BSA; C-terminal cysteine introduced to enable coupling); experiment: ELISA, coated peptide-BSA, IgG1
T4 construct: also called CXCR2 aa1-48 BSA
T4 sequence (P02769 25-607 limits assumed): as above
Experimental: as §1

[4] = target: T1, human CXCR2; experiment: FACS, CXCR2 CHO Flp-In cells, IgG1
Experimental: (§2) Human CXCR2-expressing Flp-In™ CHO cells were harvested at ˜80% confluence washed once with PBS (Gibco, Cat #14190-094) and detached using Versene (Invitrogen, Cat #15040-033). Subsequently, cells were counted and centrifuged at 250×g for 5 min at 4° C. Afterwards, cells were diluted in Superblock (Thermo Fisher Perbio Science, Cat #37515) to a cell concentration of 2E+05-1E+06/mL and 100 μL/well were transferred to 96-well microtiter plate (Nunc, Cat#163320). Cells were once centrifuged, supernatant discarded and antibodies added at 1 μg/mL (unless stated otherwise), incubated for 1 h at 4° C. and washed twice with FACS buffer (PBS/3% FCS/0.02% NaN3). Binding of anti-CXCR2 antibodies was detected by incubation of Phycoerythrin-conjugated anti-human IgG (Dianova, Cat #109-116-097) for 1 h at 4° C. Samples were subsequently measured using FACS Array (Becton Dickinson).

[5] = target: T2, hu_CXCR2_N-term (1-17)-BSA; experiment: ELISA, coated peptide-BSA, IgG
Experimental: as §1

[6] = target: T3, ECL3 peptide aa273-295, BSA-coupled; experiment: ELISA, coated peptide-BSA, IgG
Experimental: as §1

[7] = target: T4, N-terminal peptide aa1-48, BSA-coupled; experiment: ELISA, coated peptide-BSA, IgG
Experimental: as §1

[8] = target: T1, human CXCR2; experiment: FACS, CXCR2 CHO Flp-In cells, IgG
Experimental: as §2

binding result [1] | binding result [2] | binding result [3] | binding result [4] | binding result [5] | binding result [6] | binding result [7] | binding result [8] | Binder
binds | binds | binds | binds |  |  |  |  | CX2-Mab #1.2 (antibody, IgG1, V domains shown) VH: QVQLVQSGAEVKKPGSSVKVSCKASGGTFSSYAISWVRQAPGQGLEWMGGIIPIVGEAKYAQKFQGRVTITADESTSTAYMELSSLRSEDTAVYYCARDSSGYDGYYAFAYWGQGTQVTVSS VL: DIVLTQPPSVSGAPGQRGTISCSGSSSNIGSSSVNWYQQLPGTAPKLLIYRNNQRPSGVPDRFSGSKSGTSASLAITGLQAEDEADYYCATADQRGIVFGGGTKLTVLG
 |  |  |  | binds | binds | binds | binds | CX2-Mab #7 (antibody, IgG1, V domains shown) VH: QVQLLESGGGLVQPGGSLRLSCAASGFTFSRYWMSWVRQAPGKGLEWVSVISYSGSETYYADSVKGRFTISRDNSKNTLYLQMNSLRAEDTAVYYCARGRAYGYFDPWGQGTLVTVSS VL: DIVLTQPPSVSGAPGQRVTISCSGSSSNIGKKTVSWYQQLPGTAPKLLIYRNNQRPSGVPDRFSGSKSGTSASLAITGLQAEDEADYYCQSTDSTTEIVFGGGTKLTVLG
 |  |  |  | binds | binds | binds | binds | CX2-Mab #8 (antibody, IgG1, V domains shown) VH: QVQLVQSGAEVKKPGESLKISCKGSGYSFTNYWIAWVRQMPGKGLEWMGIIDPSNSDTRYSPSFQGQVTISADKSISTAYLQWSSLKASDTAMYYCARGRYYGFFDYWGQGTLVTVSS VL: DIVLTQPPSVSGAPGQRVTISCSGSSSNIGSTYVSWYQQLPGTAPKLLIYRNNNRPSGVPDRFSGSKSGTSASLAITGLQAEDEADYYCQVRALGTSSVVFGGGTKLTVLG
